The source of these data is patent US20180320200A1.

This experiment addresses cell surface of 293 AAV cells (human). In words: cell binding on ice for 1 h at 200000 TU/cell; unbound particles recovered from the medium and titrated on TG1 E. coli by colony counting; relative to control.

The substance “M13.PAAV vector (non-targeted phagemid/AAV particle lacking RGD4C) (from UniProt P69168 19-424)” had a binding efficiency (percentage of vectors bound to the cell surface) of 7.1%. “RGD.PAAV vector (phagemid/AAV particle displaying the RGD4C targeting peptide on the pIII minor coat protein)” yielded a binding efficiency (percentage of vectors bound to the cell surface) of 58.2%.
